Laboratory results taken from article PMC12258621.

Tests used:
[1] = biological target: dSpRY (catalytically inactive SpRY Cas9) (Streptococcus pyogenes) (UniProt Q99ZW2); assay: single-molecule AuRBT (baseline twist shift, Langmuir fit); settings: effective Kd for off-target binding on the tether; RNP with sgRNA3; EMSA: 20 mM HEPES pH 7.5, 100 mM KCl, 10 mM MgCl2, 1% glycerol, 0.5 mM DTT (37 C for plasmid EMSA); footprinting: 20 mM Tris pH 7.9, 24 mM KCl, 5 mM MgCl2 …
[2] = biological target: dSpRY (catalytically inactive SpRY Cas9) (Streptococcus pyogenes) (UniProt Q99ZW2); assay: single-molecule AuRBT (hyperbolic fit of kC-I vs [RNP]); settings: EMSA: 20 mM HEPES pH 7.5, 100 mM KCl, 10 mM MgCl2, 1% glycerol, 0.5 mM DTT (37 C for plasmid EMSA); footprinting: 20 mM Tris pH 7.9, 24 mM KCl, 5 mM MgCl2 …
[3] = biological target: dCas9 (catalytically inactive SpyCas9) D10A;H840A (Streptococcus pyogenes) (UniProt Q99ZW2); assay: single-molecule AuRBT (kC-I linear, no saturation); settings: initial binding Kd,init; >1 uM proposed from literature; R-loop forms; EMSA: 20 mM HEPES pH 7.5, 100 mM KCl, 10 mM MgCl2, 1% glycerol, 0.5 mM DTT (37 C for plasmid EMSA); footprinting: 20 mM Tris pH 7.9, 24 mM KCl, 5 mM MgCl2 …
[4] = biological target: dSpRY (catalytically inactive SpRY Cas9) (Streptococcus pyogenes) (UniProt Q99ZW2); assay: EMSA; settings: 40x plasmid competitor; 100 nM RNP, 10 nM DNA; EMSA: 20 mM HEPES pH 7.5, 100 mM KCl, 10 mM MgCl2, 1% glycerol, 0.5 mM DTT (37 C for plasmid EMSA); footprinting: 20 mM Tris pH 7.9, 24 mM KCl, 5 mM MgCl2 …

Sequence: GGCUGCGUAUUUCUACUCUGUUGUUUUAGAGCUAGAAAUAGCAAGUUAAAAUAAGGCUAGUCCGUUAUCAACUUGAAAAAGUGGCACCGAGUCGGUGCUUCG / GTCATTGTCGCGAAGTGCAGCGAGATCGCGTTTGTACTCCAAACAGAGTAGAAATACGCAGAGCAGCGATTTCTCGTGTGCAGACA / CGAAGCACCGACTCGGTGCCACTTTTTCAAGTTGATAACGGACTAGCCTTATTTTAACTTGCTATTTCTAGCTCTAAAACAACAGAGTAGAAATACGCAGCC [sgRNA3 + Target1 NGG DNA tether]
- Kd [1]: 0.015 µM
- Kd [2]: 0.01 µM
- Kd [3]: > 0.08 µM

Sequence: GGGACGCAUAAAGAUGAGACAAGUUUUAGAGCUAGAAAUAGCAAGUUAAAAUAAGGCUAGUCCGUUAUCAACUUGAAAAAGUGGCACCGAGUCGGUGCUUCG / CGCTCATGCTGACGCATAAAGATGAGAGTTTGGCGATTACAGTACGTGCG / CGCACGTACTGTAATCGCCATTGTCTCATCTTTATGCGTCAGCATGAGCG [sgRNA2 + target duplex with MM bubble next to PAM (3-20 bp)]
- binding signal [4]: 29 % bound

Sequence: GGGACGCAUAAAGAUGAGACAAGUUUUAGAGCUAGAAAUAGCAAGUUAAAAUAAGGCUAGUCCGUUAUCAACUUGAAAAAGUGGCACCGAGUCGGUGCUUCG / CGCTCATGCTGACGCATAAAGATGAGACAATGGCGATTACAGTACGTGCG / CGCACGTACTGTAATCGCCATTGTCTCATCTTTATGCGTCAGCATGAGCG [sgRNA2 + matched target duplex (0-20 bp)]
- binding signal [4]: 2 % bound
